Reference: US11103562B2, “Composition comprising alkaline phosphatase for use in the treatment of arthritides” (AMRIF BV, priority 2017, dated 2021)

Legend:
[1] = system: ED1-, ED2- and FRβ-positive macrophages in liver and spleen; assay: Macrophage infiltration in liver and spleen of arthritic rats (ED1/ED2 immunohistochemistry, FRβ immunofluorescence); assay type: in vivo, rat
Method: The arthritic and contralateral knees from all rats were dissected in toto and fixed for 7 days at 4° C. in 10% freshly made paraformaldehyde in PBS with 2% sucrose (pH=7.3) prior to decalcification in osteosoft (101728, Merck, Germany) for ˜2.5 weeks at room temperature. Thereafter, knees were embedded in paraffin. Sections of 5 μm were cut through the centre of the joint in longitudinal direction and stained with haematoxylin and eosin (HE) to assess the degree of inflammation in synovial tissue. Liver and spleen sections from all rats were dissected and fixed in 4% paraformaldehyde for 24 h before embedding in paraffin. Sections of 5 μm were cut and stained initially with HE and then for macrophages Staining for macrophages with ED1 (homologous to human CD68), and ED2 (homologous to human CD163, a marker for M2 anti-inflammatory macrophages), or isotype control antibody was performed. Images were captured using a Leica 4000B microscope and Leica digital camera DC500 (Microsystems B. V. Rijswijk, The Netherlands).
Liver and spleen tissues collected at the end of the study were snap frozen in liquid nitrogen and stored at −80° C. Tissues were embedded in appropriate media (OCT; SKU4583, Tissue-Tek, Netherlands), cut using a cryotome cryostat (−20° C.) (Leica, The Netherlands) and placed on Superfrost (4951PLUS4, ThermoFisher, The Netherlands) glass slides for immunofluorescence (IF) staining Sections of 8 μm were cut and stained with haematoxylin and eosin. […]
Stained slides of liver and spleen sections of arthritic rats and AP-treated arthritic rats were blinded and counted by two independent observers for FRβ, ED1- and ED2-positive synovial macrophages. For quantification, representative areas of liver and spleen sections were divided into 4 regions, each representing a central pulp and vein, respectively. The FRβ, ED1- and ED2-positive macrophages were counted at 400× magnification as described above. […] As a reference liver and spleen sections of healthy rats were analyzed as control.

[2] = Tolerability of therapeutic interventions in arthritic rats; assay type: in vivo
Method: All rats (except healthy) were immunized and arthritis was induced via 1× or 4× intra-articular (i.a) mBSA injections, 4 or 5 days apart in the arthritic (right) knee, the contralateral (left, non-arthritic) knee serving as control knee. For therapeutic interventions, AP (human recombinant placenta AP, TNO, Zeist, The Netherlands) was administered subcutaneously (s.c.) at a dose of 700 U/kg (≈200 μg), MTX (VU University Medical Centers' Pharmacy) was administered intra-peritoneal (i.p.) at two dosages: 0.3 mg/kg (low dose) and 1.0 mg/kg (high dose). The rats were divided in 8 groups, based on different treatments and treatment schedules. In a prophylactic setting, two rats received AP twice prior to intra-articular (i.a.) arthritis induction and four rats received AP twice prior to intra-articular and 4× PBS in between i.a. injections. In the treatment groups, arthritic rats were administered AP twice or 4× after arthritis induction, either as standalone therapy or in combination with low or high dose MTX. Control rats received 500 μL of PBS (i.p.). […] At the end of study, all rats were sacrificed and tissues were excised for further processing and various analyses.

[3] = 4x AP, 60 min post tracer injection
[4] = arthritic rats, 60 min after tracer

B1: AP: human recombinant placenta alkaline phosphatase (hRESCAP; TNO, Zeist), an ectophosphatase (protein, UniProt P05187 23-506, looked up)
Alkaline phosphatase, …: IIPVEEENPDFWNREAAEALGAAKKLQPAQTAAKNLIIFLGDGMGVSTVTAARILKGQKKDKLGPEIPLAMDRFPYVALSKTYNVDKHVPDSGATATAYLCGVKGNFQTIGLSAAARFNQCNTTRGNEVISVMNRAKKAGKSVGVVTTTRVQHASPAGTYAHTVNRNWYSDADVPASARQEGCQDIATQLISNMDIDVILGGGRKYMFRMGTPDPEYPDDYSQGGTRLDGKNLVQEWLAKRQGARYVWNRTELMQASLDPSVTHLMGLFEPGDMKYEIHRDSTLDPSLMEMTEAALRLLSRNPRGFFLFVEGGRIDHGHHESRAYRALTETIMFDDAIERAGQLTSEEDTLSLVTADHSHVFSFGGYPLRGSSIFGLAPGKARDRKAYTVLLYGNGPGYVLKDGARPDVTESESGSPEYRQQSAVPLDEETHAGEDVAVFARGPQAHLVHGVQEQTFIAHVMAFAACLEPYTACDLAPPAGTTD
reduction of both ED1- and ED2-positive infiltrating macrophages in spleen ([1]; AP-treated vs saline-treated arthritic rats): ~30%
decrease of both ED1- and ED2-positive infiltrating macrophages in liver ([1]; AP-treated vs saline-treated arthritic rats, p<0.001): ~50%
FRβ-positive macrophages in liver and spleen ([1]; after AP treatment, arthritic rats): lowered number
changes in body weight [2]: nor were significant changes in the body weight observed
tolerability / adverse effects ([2]; AP 700 U/kg, MTX 0.3 or 1.0 mg/kg): well tolerated
[^18F]fluoro-PEG-folate uptake, Heart, Avg (macrophages; [3]): 0.117 % ID/g
[^18F]fluoro-PEG-folate uptake, Liver, Avg (macrophages; [3]): 0.151 % ID/g
[^18F]fluoro-PEG-folate uptake, Lung, Avg (macrophages; [3]): 0.111 % ID/g
[^18F]fluoro-PEG-folate uptake, Spleen, Avg (macrophages; [3]): 0.779 % ID/g
[^18F]fluoro-PEG-folate uptake in kidney and intestine (in words) (macrophages; [4]): not impacted
[^18F]fluoro-PEG-folate uptake in lung, heart, liver and spleen (in words) (macrophages; [4]): reductions
